In US11655492B2, “Activated formylglycine-generating enzymes and methods of producing and using the same” (R.P. Scherer Technologies, LLC, priority 2015, dated 2023):
Values joined by “and” are separate entries in the source; they are usually repeats but may differ in a detail not shown here. Identical values can stand only once. “Also recorded” adds a separate entry of the source. Like-named read-outs stand apart in the source and are kept apart here.

Assays:
Sc-FGE = Sc-FGE (Streptomyces coelicolor, UniProt Q9F3C7); assay type: biochemical, S. coelicolor
Hs-cFGE = molecular target: T1, Hs-cFGE (Homo sapiens, UniProt Q8NBK3); conditions: copper-treated Hs-cFGE; EDTA 5 molar equiv or KCN
T1 sequence (Q8NBK3 with tags, fused parts or gaps isoform Q8NBK3-4): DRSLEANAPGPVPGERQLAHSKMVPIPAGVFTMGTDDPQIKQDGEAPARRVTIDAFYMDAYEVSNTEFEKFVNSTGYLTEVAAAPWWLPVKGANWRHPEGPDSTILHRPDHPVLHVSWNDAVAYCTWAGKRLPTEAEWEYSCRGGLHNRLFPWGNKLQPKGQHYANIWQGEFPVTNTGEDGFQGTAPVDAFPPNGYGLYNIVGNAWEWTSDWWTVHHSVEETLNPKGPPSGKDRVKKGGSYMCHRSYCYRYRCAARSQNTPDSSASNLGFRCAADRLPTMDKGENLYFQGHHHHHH

FGE = molecular target: T2, FGE (Homo sapiens, UniProt Q8NBK3); assay: FGE reaction mixtures with reductants or additives (product formation); assay type: biochemical; conditions: additive in the in vitro FGE reaction mixture
T2 construct: made in house
T2 sequence (Q8NBK3 with tags, fused parts or gaps isoform Q8NBK3-4): T1 sequence (Q8NBK3 with tags, fused parts or gaps isoform Q8NBK3-4)
Method: The specific activity of FGE was measured using a discontinuous enzymatic activity assay. […] The rate of reaction was determined by integrating the peak areas at 215 nm of the substrate cysteine (Csub) and product (fGly) peptides on reversed-phase HPLC. […] Each aqueous reaction solution (120 μL) contained Csub (100 μM), FGE (0.1-1 μM), DTT (1 mM), and buffer (25 mM TEAM, pH 9). A single time course included 5 data points collected at evenly spaced intervals. The reaction was initiated upon addition of FGE stock solution and vortexing for 3 s. The reaction vial was vortexed at 1,500 RPM and 25° C. in a thermomixer R (Eppendorf). Time points were hand quenched by adding 20 μL of reaction mixture to 2 μL of 1 M HCl using a micropipettor. After completion of the reaction, each time point was analyzed by RP-HPLC (see below).
The conversion of Cys to fGly used a 2 H^+/2 e^− oxidation of the substrate Cys thiol as well as exchange of sulfur for oxygen. […] However, because O2 is a 4 H^+/4 e^− acceptor, a reducing agent was used to provide a second equivalent of 2 H^+ and 2 e^−, completing the reduction from O2 to 2 mol H2O. […] A mixture of reductant (DTT) and O2 was used for routine activity measurements.

recombinant human FGE = molecular target: T3, recombinant human FGE (Homo sapiens, UniProt Q8NBK3); assay: In vivo conversion in CHO cells expressing recombinant human FGE and αHER2 mAb, additives in culture medium
T3 sequence (Q8NBK3 34-374): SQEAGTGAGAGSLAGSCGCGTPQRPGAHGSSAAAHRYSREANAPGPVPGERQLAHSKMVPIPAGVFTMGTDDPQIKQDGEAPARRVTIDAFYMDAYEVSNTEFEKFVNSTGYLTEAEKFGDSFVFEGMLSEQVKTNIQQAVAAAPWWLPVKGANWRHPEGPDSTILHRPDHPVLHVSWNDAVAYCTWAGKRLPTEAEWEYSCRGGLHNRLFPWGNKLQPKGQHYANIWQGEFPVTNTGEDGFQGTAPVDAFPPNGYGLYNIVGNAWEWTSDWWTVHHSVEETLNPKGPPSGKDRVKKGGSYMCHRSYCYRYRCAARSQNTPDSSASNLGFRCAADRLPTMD
Method: The effect on conversion in the presence of Cu^2+ (copper sulfate) in the cell culture medium of mammalian cells expressing FGEs and proteins that include FGE recognition sites was investigated. CHO cells expressing a recombinant human FGE and recombinant αHER2 mAb (heavy and light chain in same cell) containing the FGE recognition sequence LCTPSR (SEQ ID NO:4) were cultured FortiCHO media with the CellBoost4 feed, Efficient Feed C, and Efficient Feed C, supplemented with glucose and/or galactose.
The experimental conditions were the same as those used in the Cu^2+ experiments above.

[1] = test system: 14 amino acid peptide ALCTPSRGSLFTGR (SEQ ID NO:8); assay: Discontinuous FGE activity assay on peptide substrate (RP-HPLC); assay type: biochemical
Method: [formula] where Et is the total enzyme in solution, and kcat and KM are the standard enzymatic parameters specified by the STRENDA commission. Units of enzyme specific activity are the katal, where 1 kat=1 mol·s^−1. Kinetic parameters were determined from nonlinear regression of [substrate] v. initial velocity using GraphPad prism.
The specific activity of FGE was measuring using a discontinuous enzymatic activity assay. The substrate for FGE was a 14 amino acid peptide containing the consensus sequence (H2N-[…]-COOH (SEQ ID NO:8)). The rate of reaction was determined by integrating the peak area at 215 nm of the starting material (Cys) and product (fGly) containing peptides on reversed-phase HPLC. The identity of product (and side product) peaks were determined by RP-HPLC MS/MS. Each aqueous reaction solution (60 μL) contained substrate peptide (100 μM), FGE (1 μM), DTT (1 mM), and buffer (25 mM triethanolamine, pH 9). A single time course consisted of 5 data points collected every 2 minutes. The reaction was initiated upon addition of FGE stock solution and vortexing for 3 s. Time points were quenched by diluting 10 μL of reaction mixture into 1 μL of 1 M HCl by hand with a micropipettor. After completion of the reaction, each time point was analyzed by RP-HPLC.
(§1) Substrate, product, and side products of the FGE substrate peptide […] (SEQ ID NO:8) were separated on RP-HPLC over 7 min with isocratic 18% MeCN in water containing 0.1% TFA. The integrated area of the fGly (2.1 min), Cys (3.3 min), βME-DS (3.6 min), and Cys-DS (6.2 min) forms of the substrate were used to calculate total area and each fraction thereof.
The specific activity of FGE was measured using a discontinuous enzymatic activity assay. The substrate for FGE was a 14 amino acid peptide containing the CXPXR consensus sequence ([…] (SEQ ID NO:8)). The rate of reaction was determined by integrating the peak areas at 215 nm of the substrate cysteine (Csub) and product (fGly) peptides on reversed-phase HPLC. The identities of product (and side product) peaks were determined by RP-HPLC MS/MS (see below). Each aqueous reaction solution (120 μL) contained Csub (100 μM), FGE (0.1-1 μM), DTT (1 mM), and buffer (25 mM TEAM, pH 9). A single time course included 5 data points collected at evenly spaced intervals. The reaction was initiated upon addition of FGE stock solution and vortexing for 3 s. The reaction vial was vortexed at 1,500 RPM and 25° C. in a thermomixer R (Eppendorf). Time points were hand quenched by adding 20 μL of reaction mixture to 2 μL of 1 M HCl using a micropipettor. After completion of the reaction, each time point was analyzed by RP-HPLC (see below).
as §1, with “integrated areas” for “integrated area”, “min), Csub” for “min), Cys”, “min), the Csub/βME disulfide (Csub-βME, 3.6” for “min), βME-DS (3.6”, “and substrate/substrate disulfide (Csub-Csub, 6.1” for “and Cys-DS (6.2”
Individual FGE reactions were initiated by rapidly mixing FGE into a premixed buffered solution of Csub and reducing agent. It was assumed that all buffered solutions contained oxygen at ˜270 μM at 25° C. (based upon Henry's law). Time points were chemically quenched by hand with HCl. […]. The identities of both the Cys- and fGly-containing peptides were confirmed by LC-MS/MS (FIG. 11). These assignments were then correlated with HPLC retention times (FIG. 14, panel a). The integrated peak areas of substrate and product were used to calculate the initial velocity of FGE (FIG. 14, panel b) using the method described by Boeker (Biochem. J., (1984), 223, 15; and Biochem. J., (1985), 226, 29).

CT-1.1 tagged Her2 = assay: 293 Expi transient co-transfection of FGE form and CT tagged antibody, conversion by mass-spectrometry; assay type: cell-based; conditions: Expi 293F, FGE form co-transfected with Her2 CT1.1, harvest day 5-6
Method: A 293 Expi transient co-transfection system (Life Technologies) was used for producing antibodies having a formylglycine residue at a selected site. The system produced high antibody titers (100-500 mg/L) with variable (10-95%) conversion. […] Expi 293F that were treated with or without 50 μM copper sulfate prior to transfection were transiently co-transfected in three independent experiments with expression plasmids for full-length human FGE with an N-terminal KDEL (SEQ ID NO:7) amino acid sequence (+KDEL) and CT tagged antibody at a ratio of 3:1 antibody:FGE DNA. The culture was harvested at 5-6 days post transfection, titer assessed by ELISA, and the protein was purified and conversion was measured by mass-spectrometry.
Expi 293F cells that were treated with or without 50 μM copper sulfate prior to transfection were transiently co-transfected with expression plasmids for various forms of human FGE (+KDEL, WT, myc-His) and CT tagged antibody at a ratio of 3:1 antibody:FGE DNA. The culture was harvested at 5 days post transfection, titer assessed by ELISA, the protein was purified and conversion was measured by mass-spectrometry.

[2] = other ion sources: iron sulfate 0.1 mM or 0.5 mM Day 3, MnCl2 50 uM or 10 uM Day 0, ZnCl2 50 uM Day 0
[3] = as purified from cell culture, not activated
[4] = nonlinear regression to Michaelis-Menten equation

O=C1O[C@H]([C@@H](O)CO)C(=O)C1=O [DHAA, (L)-dehydroascorbic acid]
effect of pretreatment on specific activity (Sc-FGE): did not change

O=C(O)CN(CCN(CC(=O)O)CC(=O)O)CC(=O)O [EDTA, Ethylenediaminetetraacetic acid]
effect of pretreatment of activated enzyme on specific activity (Sc-FGE): do not change; also recorded: did not change | effect of pretreatment of activated enzyme on catalytic activity (Hs-cFGE): did not change

OO [H2O2, hydrogen peroxide]
effect on product formation when added directly to the reaction (FGE): halted the reaction

[Cl][Mn][Cl] [MnCl2]
effect on conversion of the target polypeptide (recombinant human FGE; [2]): did not effect a detectable or significant increase

[Cl-].[Cl-].[Zn+2] [ZnCl2]
effect on conversion of the target polypeptide (recombinant human FGE; [2]): did not effect a detectable or significant increase

O=S(=O)([O-])[O-].[Fe+2] [iron sulfate, iron(II) sulfate]
effect on conversion of the target polypeptide (recombinant human FGE): did not effect a detectable or significant increase

CC(O)C(=O)O (centres unmarked) [lactate]
effect on conversion efficiency of the FGE (recombinant human FGE; potential stimulators of lactate consumption, lactate or pyruvate 1.5 g/L with feeds): did not increase conversion efficiency

B1: Hs-FGE: full length wild-type human FGE containing the N-terminal extension and the core, UniProt Q8NBK3 (protein, UniProt Q8NBK3 1-374, looked up)
chain: MAAPALGLVCGRCPELGLVLLLLLLSLLCGAAGSQEAGTGAGAGSLAGSCGCGTPQRPGAHGSSAAAHRYSREANAPGPVPGERQLAHSKMVPIPAGVFTMGTDDPQIKQDGEAPARRVTIDAFYMDAYEVSNTEFEKFVNSTGYLTEAEKFGDSFVFEGMLSEQVKTNIQQAVAAAPWWLPVKGANWRHPEGPDSTILHRPDHPVLHVSWNDAVAYCTWAGKRLPTEAEWEYSCRGGLHNRLFPWGNKLQPKGQHYANIWQGEFPVTNTGEDGFQGTAPVDAFPPNGYGLYNIVGNAWEWTSDWWTVHHSVEETLNPKGPPSGKDRVKKGGSYMCHRSYCYRYRCAARSQNTPDSSASNLGFRCAADRLPTMD
modifications: full-length
notes: full length wild-type human FGE containing the N-terminal extension and the core, UniProt Q8NBK3
specific activity [1, 3]: 850 pkat·mg^−1

B2: +KDEL: full-length human FGE with an N-terminal KDEL (SEQ ID NO:7) amino acid sequence (protein, UniProt Q8NBK3 1-374, looked up)
chain: B1 chain
modifications: full-length N-terminal KDEL
Conversion (%) (CT-1.1 tagged Her2; copper sulfate 0 μM): 72% and 47% and 78% and 62% | Conversion (%) (CT-1.1 tagged Her2; copper sulfate 50 μM at Day 0): 93% and 94% and 95% and 88%

B3: Sc-FGE: Streptomyces coelicolor formylglycine-generating enzyme, UniProt Q9F3C7, N-terminal hexahistidine tag, expressed in E. coli (protein)
chain: MAVAAPSPAAAAEPGPAARPRSTRGQVRLPGGEFAMGDAFGEGYPADGETPVHTVRLRPFHIDETAVTNARFAAFVKATGHVTDAERFGSSAVFHLVVAAPDADVLGSAAGAPWWINVRGAHWRRPEGARSDITGRPNHPVVHVSWNDATAYARWAGKRLPTEAEWEYAARGGLAGRRYAWGDELTPGGRWRCNIWQGRFPHVNTAEDGHLSTAPVKSYRPNGHGLWNTAGNVWEWCSDWFSPTYYAESPTVDPHGPGTGAARVLRGGSYLCHDSYCNRYRVAARSSNTPDSSSGNLGFRCANDADLTSGSAAE
modifications: left off: small tags and cut ends
notes: Streptomyces coelicolor formylglycine-generating enzyme, UniProt Q9F3C7, N-terminal hexahistidine tag, expressed in E. coli
increase of specific activity on activation [1]: more than an order of magnitude | specific activity [1]: 3579±215 pkat·mg^−1 | specific activity [1, 3]: 214 pkat·mg^−1 and 214±34 pkat·mg^−1 | Km [1, 4]: 96 µM | kcat [1, 4]: 0.288 s⁻¹

B4: myc His: human FGE C-terminally tagged with myc-His (pRW529) (protein, UniProt Q8NBK3 34-374, looked up)
Formylglycine-generating …: T3 sequence (Q8NBK3 34-374)
modifications: C-terminal myc-His tag
specific activity of FGE isolated from Cu^2+ treated cells vs untreated cells [1]: significantly higher activity | Conversion (%) (CT-1.1 tagged Her2; copper sulfate 50 μM at Day 0): 78% and 94%

B5: WT: WT form of human FGE, non-KDEL (protein, UniProt Q8NBK3 34-374, looked up)
Formylglycine-generating …: T3 sequence (Q8NBK3 34-374)
Conversion (%) (CT-1.1 tagged Her2; copper sulfate 0 μM): 77% | Conversion (%) (CT-1.1 tagged Her2; copper sulfate 50 μM at Day 0): 86%
